No end group written: not given here.
B2: Med25-ACID_(532-680), activator interaction domain (ACID) of mediator complex subunit 25 (domain or fragment, Arabidopsis thaliana, UniProt Q7XYY2 532-680, looked up)
chain: SNSSAPNMQLSQPSSGAMQTSQSKYVKVWEGNLSGQRQGQPVLITRLEGYRSASASDSLAANWPPTMQIVRLISQDHMNNKQYVGKADFLVFRAMSQHGFLGQLQDKKLCAVIQLPSQTLLLSVSDKACRLIGMLFPGDMVVFKPQIPN
notes: 15N- or 13C,15N-labelled in the NMR titrations; unlabelled in ITC, CEST and stopped-flow; also called AtMed25-ACID; ACID domain; source: E. coli BL21 DE3, purified (glutathione Sepharose, TEV cleavage, cation exchange, SEC); not shown: GST, N-terminal, cleaved

Columns and labels:
Med25-ACID = target: T1, Med25-ACID (Arabidopsis thaliana, UniProt Q7XYY2); details: SD
T1 construct: Med25-ACID532-680 (AT1G25540), expressed in E. coli with N-terminal GST tag removed by TEV protease
Method: All protein fragments were produced with an N-terminal Glutathione-S-transferase (GST) tag which was removed using Tobacco Etch Virus (TEV) protease and expressed from E.coli BL21 DE3 cells. DREB2A (AT5G05410) variants were expressed at 37 °C for three hours. The DREB2A splice variant (AT5G05410.2) was based on GenBank ID CD530293[21]. Due to stability and aggregation considerations, Med25-ACID (AT1G25540) was expressed with additional N-terminal residues. Expression of Med25-ACID532-680 was induced at high OD (0.8-1.0) and cultured overnight at 18 °C. Cells were resuspended in 20 mM Tris-HCl pH 8.0, 100 mM NaCl lysis buffer and sonicated. The lysate was incubated with glutathione Sepharose for one hour and washed using the lysis buffer. Aliquots of 5 mL resin were resuspended in 20 mL of lysis buffer with 5 mM dithiothreitol (DTT) and 1 mM EDTA and the protein was cleaved overnight at 4 °C using TEV protease. For DREB2A, cleaved protein was freeze-dried and buffer-changed to experimental buffer using size exclusion chromatography. Med25-ACID was further purified using cation exchange (Source 15 S) at pH 8.5 and the buffer was changed using size exclusion chromatography (Superdex S75 10/300 GL). Isotope-labeled proteins were produced by growing the initial culture in lysogenic broth and transferring to half volume M9 minimal media 30 min before induction.
(§1) ITC was performed on either a MicroCal ITC200 or a Malvern Pananalytical PEAQ-ITC. All ITC experiments were performed using a 50 mM HEPES pH 7.4, 100 mM NaCl and 0.5 mM tris(2-carboxyethyl)phosphine (TCEP) buffer. All experiments were performed using a ~ 1:10 cell to syringe protein concentration ratio. For high-affinity DREB2A fragments, the cell concentration was around 15 µM, while lower-affinity interaction experiments used higher concentrations. Samples were degassed by centrifuging at 20,000 x g for 20 minutes at experimental temperature. For three DREB2A fragments, experiments were performed over a range of temperatures to determine the ΔCp. Reported thermodynamic parameters are given at 25 °C. Data were analyzed using Origin and inhouse scripts using the one-set-of-sites model as documented by MicroCal and Origin. Dilution heats were fitted using an offset parameter. Most experiments were performed using a 0.5 µl initial injection, which was discarded in the analysis, followed by 18 injections of 2.0 µl.

Med25-ACID R568A [1] = target: T2, Med25-ACID R568A (Arabidopsis thaliana, UniProt Q7XYY2, R568A); details: SD, n = 2
T2 construct: Med25-ACID532-680 R568A, N-terminal GST tag removed by TEV protease
Method: To validate the proposed binding groove, we introduced an alanine in L1, replacing Arg568, which experienced a large CSP upon DREB2A binding, and determined the binding affinity using ITC with the high-affinity ABS-RIM fragment (DREB2A234-276, Fig. 1A). […] Thus, both NMR and thermodynamics supported the importance of the groove for the interaction with DREB2A.
as §1, with “µl. […]” for “µl.”

RCD1-RST = target: T3, RCD1-RST (Arabidopsis thaliana, UniProt Q8RY59); details: cited from earlier work
T3 construct: RCD1-RST
Source text: However, alternative splicing of DREB2A will shortcut such regulatory fine-tuning of competition by removing the RIM, thereby eliminating RCD1 as a repressor while leaving AD2 available (Fig. 7B). This provides an obvious mechanism for functional switching in a transcriptional pathway.

[2] = target: T4, Med25-ACID_(532-680), activator interaction domain (ACID) of mediator complex subunit 25 (Arabidopsis thaliana, UniProt Q7XYY2 532-680); test: stopped-flow, 10 °C
T4 chain: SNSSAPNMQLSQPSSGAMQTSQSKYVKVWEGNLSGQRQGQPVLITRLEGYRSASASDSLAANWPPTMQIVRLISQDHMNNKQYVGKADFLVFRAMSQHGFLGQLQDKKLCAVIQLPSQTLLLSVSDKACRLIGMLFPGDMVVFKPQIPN

[3] = target: B2; test: stopped-flow fluorescence; FITC-DREB2A (50 nM 234-276 or 250 nM 234-256) mixed with increasing Med25-ACID(532-680), pseudo-first-order; dissociation by competitive displacement with unlabeled DREB2A; 50 mM HEPES pH 7.4, 100 mM NaCl, 1 mM DTT; Fig. 7 legend gives kinetic rate constants at 10 °C; details: both partners purified
[4] = target: T4, Med25-ACID_(532-680), activator …; test: stopped-flow, 10 °C
DREB2A_(151-335) = target: T5, DREB2A_(151-335) (Arabidopsis thaliana, UniProt O82132 151-335); test: ITC; 25 °C; 50 mM HEPES pH 7.4, 100 mM NaCl, 0.5 mM TCEP; ~1:10 cell to syringe concentration ratio, cell around 15 µM for high-affinity fragments; one-set-of-sites model; which protein was in the cell is not stated; details: both partners purified
T5 construct: also called C-terminal intrinsically disordered region (IDR) of DREB2A; source: E. coli BL21 DE3, purified (glutathione Sepharose, TEV cleavage, SEC); not shown: GST, N-terminal, cleaved
T5 sequence (looked up): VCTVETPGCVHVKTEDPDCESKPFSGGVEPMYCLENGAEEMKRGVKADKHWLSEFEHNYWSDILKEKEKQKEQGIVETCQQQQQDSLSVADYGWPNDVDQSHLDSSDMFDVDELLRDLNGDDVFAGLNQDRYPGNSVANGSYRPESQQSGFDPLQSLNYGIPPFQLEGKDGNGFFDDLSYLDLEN

Med25-ACID R568A [5] = target: T6, Med25-ACID R568A (Arabidopsis thaliana, UniProt Q7XYY2 532-680, R568A); test: as above; details: both partners purified
T6 construct: Mediator complex subunit 25 (Med25), Arabidopsis thaliana, AT1G25540, ACID domain construct with Arg568 in loop L1 replaced by alanine; the only Med25-ACID construct described is 532-680; source: E. coli BL21 DE3, purified (glutathione Sepharose, TEV cleavage, cation exchange, SEC); not shown: GST, N-terminal, cleaved
T6 sequence (looked up): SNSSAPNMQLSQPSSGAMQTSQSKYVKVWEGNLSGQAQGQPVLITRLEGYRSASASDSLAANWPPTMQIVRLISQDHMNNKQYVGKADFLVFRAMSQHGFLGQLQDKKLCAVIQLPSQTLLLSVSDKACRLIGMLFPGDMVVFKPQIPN

[6] = target: B2; test: as above; details: both partners purified
[7] = target: B2; test: as above; details: both partners purified; remark: listed apart in the source
[8] = target: T4, Med25-ACID_(532-680), activator …; test: NMR; trans proline isomer, 10 °C
[9] = target: T4, Med25-ACID_(532-680), activator …; test: trans proline isomer, 10 °C
[10] = target: B2; test: CEST NMR; 15N- and 13C-CEST; 500 µM 13C,15N-labeled DREB2A(234-276) or 1 mM DREB2A(234-276,P245A) with about 5% molar ratio of unlabeled Med25-ACID(532-680); pH 6.1, 20 mM phosphate, 100 mM NaCl; 25 °C and 10 °C; isomer Kd values estimated from the bound fractions and the overall ITC affinity; details: both partners purified
[11] = target: T4, Med25-ACID_(532-680), activator …; test: cis proline isomer, 10 °C
[12] = target: T4, Med25-ACID_(532-680), activator …; test: NMR; cis proline isomer, 10 °C

T3 sequence (Q8RY59 499-572): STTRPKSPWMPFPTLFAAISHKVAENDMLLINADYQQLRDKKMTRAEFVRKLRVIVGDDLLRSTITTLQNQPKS

With DREB2A195-276 [195–276] as the molecule, how does the Kd (Med25-ACID) read?
The Kd was 450 ± 30 nM.

And the Kd (Med25-ACID R568A [1])?
Its Kd is 3100 nM.

For DREB2A (fragment borders not printed), which Kd (RCD1-RST) is on record?
Its Kd is 12 nM.

B1: FITC-DREB2A_(234-256) synthetic peptide (peptide, UniProt O82132 234-256, looked up)
peptide: QDSLSVADYGWPNDVDQSHLDSS
modifications: also: FITC label, position not given here
notes: DREB2A, Arabidopsis thaliana, AT5G05410, residues 234-256; also called FITC-labeled ABS; source: synthetic peptide, bought: TAG Copenhagen A/S
For B1, which koff [2] is on record?
The koff was 54 s⁻¹.

What about the kon [3] of the same molecule?
The kon was 2.9e+07 ± 1e+06 M⁻¹ s⁻¹.

And the Kd [4]?
Its Kd is 1800 nM.

Which Kd (DREB2A_(151-335)) does the source give for B2 here?
The Kd was 540 nM.

B3: DREB2A_(234-276) (ABS-RIM) (domain or fragment, Arabidopsis thaliana, UniProt O82132 234-276, looked up)
chain: QDSLSVADYGWPNDVDQSHLDSSDMFDVDELLRDLNGDDVFAG
notes: 13C,15N-labelled in the CEST experiments; Populates cis (30 ± 1%) and trans Trp244-Pro245 isomers in the free state; also called bivalent ABS-RIM fragment; source: E. coli BL21 DE3, purified (glutathione Sepharose, TEV cleavage, SEC); not shown: GST, N-terminal, cleaved
Which Kd (Med25-ACID R568A [5]) does the source give for B3 here?
The Kd was 3100 ± 700 nM.

And the dH (Med25-ACID R568A [5])?
The dH was -11 ± 0.956 kcal/mol.

What about the “stoichiometry N” value (Med25-ACID R568A [5]) of the same molecule?
Its value is 0.9 ± 0.01.

And the Kd [6]?
The Kd was 510 nM.

What about the dH [6] of the same molecule?
The dH was -12.1 kcal/mol.

And the “stoichiometry N” value [6]?
The value was 0.98.

What about the Kd [7] of the same molecule?
Its Kd is 520 ± 20 nM.

And the Kd [8]?
Its Kd is 190 nM.

What about the koff [9] of the same molecule?
The koff was 24 s⁻¹.

And the “KD of the cis-Pro245 isomer (estimated from CEST bound fractions and the ITC affinity)” value [10]?
Its value is 330 ± 20 nM.

And the “KD of the trans-Pro245 isomer (estimated from CEST bound fractions and the ITC affinity)” value [10]?
The value was 640 ± 30 nM.

What about the koff [11] of the same molecule?
The koff was 6 s⁻¹.

And the Kd [12]?
The Kd was 110 nM.

— PMC10796322, “Molecular switching in transcription through splicing and proline-isomerization regulates stress responses in plants” (Nature Communications, 2024)
